First the molecules themselves.
B1: LINE1-mini (parent)
chain: GGCAGAGCUCAACACAGCGUGGCAAAGUGGCUGUGGCUAGACUGCC

Results on 56 variants are retold here after the RNAGym collection of RNA variant scans (doi:10.7554/elife.90254).

Variants of B1 are the subject of the series. Nature of the series: self-cleavage, relative activity (ratio to wild type); higher = more cleavage; in vitro, sequencing; the parent is a self-cleaving ribozyme.
Turning to GACAGAGCUCAACACAGCGUGGCAAACUGGCUGUGGCUAGACUGCC, the self-cleavage is 0.72.
Regarding GACAGAGCUCAACACAGCGUGGCAAAAUGGCUGUGGCUAGACUGCC, the self-cleavage was 0.66.
Under GACAGAGCUCAACACAGCGUGGCAAAUUGGCUGUGGCUAGACUGCC stands 0.75; under GACAGAGCUCAACACAGCGUGGCAAAGUGGCUGUGGCUAGACUGCU, 0.87.
Under GACAGAGCUCAACACAGCGUGGCAAAGUGGCUGUGGCUAGACUGCA stands 1.23.
For the variant GACAGAGCUCAACACAGCGUGGCAAAGUGGCUGUGGCUAGACUGCG, the self-cleavage was 0.96.
Under GACAGAGCUCAACACAGCGUGGCAAAGUGGCUGCGGCUAGACUGCC stands 0.19; under GACAGAGCUCAACACAGCGUGGCAAAGUGGCUGGGGCUAGACUGCC, 0.13; under GACAGAGCUCAACACAGCGUGGCAAAGUGGCUGAGGCUAGACUGCC, 0.18.
Under GACAGAGCUCAACACAGCGUGGUAAAGUGGCUGUGGCUAGACUGCC stands 2.33; under GACAGAGCUCAACACAGCGUGGAAAAGUGGCUGUGGCUAGACUGCC, 1.04; under GACAGAGCUCAACACAGCGUGGGAAAGUGGCUGUGGCUAGACUGCC, 0.4.
For GACAGAGCUCAACACAGAGUGGCAAAGUGGCUGUGGCUAGACUGCC, the self-cleavage is 0.16.
The same measure for GACAGAGCUCAACACAGUGUGGCAAAGUGGCUGUGGCUAGACUGCC: 0.46; for GACAGAGCUCAACACAGGGUGGCAAAGUGGCUGUGGCUAGACUGCC: 0.46; for GCCGGAGCUCAACACAGCGUGGCAAAGUGGCUGUGGCUAGACUGCC: 0.16.
Under GCCCGAGCUCAACACAGCGUGGCAAAGUGGCUGUGGCUAGACUGCC stands 0.11; under GCCUGAGCUCAACACAGCGUGGCAAAGUGGCUGUGGCUAGACUGCC, 0.08; under GACAGAGCUCAACACAGCGUGGCAAAGUGGCCGUGGCUAGACUGCC, 0.24.
The same measure for GACAGAGCUCAACACAGCGUGGCAAAGUGGCGGUGGCUAGACUGCC: 0.2; for GACAGAGCUCAACACAGCGUGGCAAAGUGGCAGUGGCUAGACUGCC: 0.14; for GACAGAGCUCAACACAGCGUGGCAAAGUGGCUGUGGCCAGACUGCC: 0.7.
Take GACAGAGCUCAACACAGCGUGGCAAAGUGGCUGUGGCAAGACUGCC: the self-cleavage came to 0.71.
The same measure for GACAGAGCUCAACACAGCGUGGCAAAGUGGCUGUGGCGAGACUGCC: 0.05; for GACAGAGCUCAACACAGCGUGGCAAAGUGGCUGUGGCUAGACUGGC: 0.75.
The same measure for GACAGAGCUCAACACAGCGUGGCAAAGUGGCUGUGGCUAGACUGAC: 1.08; for GACAGAGCUCAACACAGCGUGGCAAAGUGGCUGUGGCUAGACGGCC: 0.14.
Under GACAGAGCUCAACACAGCGUGGCAAAGUGGCUGUGGCUAGACAGCC stands 0.14; under GACAGAGCUCAACACAGCGUGGCAAAGUGGCUGUGGCUAGACCGCC, 0.13.
On to GCCAGAGCUCAACUCAGCGUGGCAAAGUGGCUGUGGCUAGACUGCC, for which the self-cleavage came to 0.08.
Under GCCAGAGCUCAACGCAGCGUGGCAAAGUGGCUGUGGCUAGACUGCC stands 0.03; under GCCAGAGCUCAACCCAGCGUGGCAAAGUGGCUGUGGCUAGACUGCC, 0.06; under GACAGAGCUCAACACAGCCUGGCAAAGUGGCUGUGGCUAGACUGCC, 0.19.
Under GACAGAGCUCAACACAGCUUGGCAAAGUGGCUGUGGCUAGACUGCC stands 0.72; under GACAGAGCUCAACACAGCAUGGCAAAGUGGCUGUGGCUAGACUGCC, 1.72; under GACAGAGCCCAACACAGCGUGGCAAAGUGGCUGUGGCUAGACUGCC, 0.08.
Consider GACAGAGCGCAACACAGCGUGGCAAAGUGGCUGUGGCUAGACUGCC, for which the self-cleavage is 0.25.
Under GACAGAGCACAACACAGCGUGGCAAAGUGGCUGUGGCUAGACUGCC stands 0.31; under GACAGAGCUCAACACAGCGUGGCAAAGUGGCUGUGGCUAGAGUGCC, 0.34; under GACAGAGCUCAACACAGCGUGGCAAAGUGGCUGUGGCUAGAAUGCC, 0.36.
The same measure for GACAGAGCUCAACACAGCGUGGCAAAGUGGCUGUGGCUAGAUUGCC: 0.44; for GACAGAGCUCAACACAGCGUGGCAAAGUGGCUGUGGCUAGACUACC: 0.49; for GACAGAGCUCAACACAGCGUGGCAAAGUGGCUGUGGCUAGACUUCC: 0.75.
In the case of GACAGAGCUCAACACAGCGUGGCAAAGUGGCUGUGGCUAGACUCCC, the self-cleavage stood at 0.56.
Under GACAGAGCUCAACAUAGCGUGGCAAAGUGGCUGUGGCUAGACUGCC stands 0.5.
Under GACAGAGCUCAACAAAGCGUGGCAAAGUGGCUGUGGCUAGACUGCC stands 0.31.
Under GACAGAGCUCAACAGAGCGUGGCAAAGUGGCUGUGGCUAGACUGCC stands 0.05; under GACAGAGCUCAACACAGCGUGUCAAAGUGGCUGUGGCUAGACUGCC, 0.89.
In the case of GACAGAGCUCAACACAGCGUGCCAAAGUGGCUGUGGCUAGACUGCC, the self-cleavage amounted to 0.29.
Under GACAGAGCUCAACACAGCGUGACAAAGUGGCUGUGGCUAGACUGCC stands 0.8; under GCCAGAGCUCAUCACAGCGUGGCAAAGUGGCUGUGGCUAGACUGCC, 0.12; under GCCAGAGCUCACCACAGCGUGGCAAAGUGGCUGUGGCUAGACUGCC, 0.02.
The same measure for GCCAGAGCUCAGCACAGCGUGGCAAAGUGGCUGUGGCUAGACUGCC: 0.07; for GACAAAGCUCAACACAGCGUGGCAAAGUGGCUGUGGCUAGACUGCC: 0.53.
Under GACAUAGCUCAACACAGCGUGGCAAAGUGGCUGUGGCUAGACUGCC stands 0.27; under GACACAGCUCAACACAGCGUGGCAAAGUGGCUGUGGCUAGACUGCC, 0.06.
